Assay [1] concerns the target T1, full-length RSV F (TM, residues 1–574) from strain A2 with the DS-Cav1 prefusion-stabilizing mutations (Human respiratory syncytial virus A, …, UniProt P03420, stabilised).
T1 construct: signal peptide in the construct; In cells F0 is cut by furin-like proteases into F2 and F1 (pep27 removed) and forms trimers; also called RSV A2 pre-F; wild-type A2; source: Expi293, transiently transfected (pVRC8400), on the cell surface
The assay is described as follows: flow cytometry on cells; Expi293 cells 48 h after transfection with full-length DS-Cav1 RSV F variants, stained with IgG 1 h at 4 °C (D25 Alexa Fluor 488-conjugated; 5C4 detected with FITC goat anti-mouse), fixed; fractional binding relative to motavizumab. Conditions: one partner purified.

The target in assay [2] is full-length RSV F (TM, residues 1–574) from strain A2 with the DS-Cav1 prefusion-stabilizing mutations (Human respiratory syncytial virus A, …, UniProt P03420, stabilised). The assay is described as follows: cell-based or functional assay.
In assay [3] the target is T2, StrepTagII and 6xHis-tagged RSV pre-F (DS-Cav1) in the 9320 RSV F background (Human respiratory syncytial virus B, …, UniProt Q6V2E7, stabilised).
T2 construct: respiratory syncytial virus fusion glycoprotein, subtype B strain 9320, stabilised in the prefusion conformation by the DS-Cav1 mutations; also called pre-F 9320; pre-F derived from subtype B strain 9320; source: Freestyle 293-F, transfected, expressed with kifunensine (5 µM); purified from supernatant (Strep-Tactin)
Put plainly: SPR; 6xHis-tagged pre-F (DS-Cav1) captured on an NTA sensor chip to ~150 RU, Biacore X100; Fab injected in 3-fold dilutions (5C4:pre-F 9320, 0.460–3000 nM); double-reference subtracted, 1:1 binding model. Conditions: both partners purified. In general terms: Surface plasmon resonance follows binding to a sensor surface in real time, without labels.

Assay [4] has as its target T3, RSV F (+) FdTHS based on strain A2 (wild-type A2 RSV F ectodomain fused to a C-terminal trimerization motif) (Human respiratory syncytial virus A, …, fully glycosylated (N-linked) | fully glycosylated (N-linked)).
T3 construct: F2 subunit (N-terminal fragment of F0 made by furin-like proteases) of the respiratory syncytial virus fusion glycoprotein, strain A2; ectodomain part of the F1 subunit (C-terminal fragment of F0 made by furin-like proteases) of the respiratory syncytial virus fusion glycoprotein, strain A2; Trimer of F2-F1 heterodimers; pep27 is removed by furin-like proteases; also called pre-F; F glycoprotein; …
Put plainly: crystal structure; 5C4 Fab co-expressed with RSV F (+) FdTHS in Expi293, complex purified (Ni-NTA, Strep-Tactin, thrombin, Superose 6); crystal from 0.2 M ammonium acetate, 0.1 M Bis-Tris pH 6.5, 25% PEG 3350; 3.4 Å. Conditions: both partners purified.

B1: D25 IgG (antibody, V domains shown)
VH: QVQLVQSGAEVKKPGSSVMVSCQASGGPLRNYIINWLRQAPGQGPEWMGGIIPVLGTVHYAPKFQGRVTITADESTDTAYIHLISLRSEDTAMYYCATETALVVSTTYLPHYFDNWGQGTLVTVSS
VL: DIQMTQSPSSLSAAVGDRVTITCQASQDIVNYLNWYQQKPGKAPKLLIYVASNLETGVPSRFSGSGSGTDFSLTISSLQPEDVATYYCQQYDNLPLTFGGGTKVEIK
notes: D25 heavy chain (human antibody); the variable domain and CH1 are in the D25 Fab of the cited entry PDB 4JHW; rest of the IgG heavy chain not described; D25 light chain (human antibody); in the D25 Fab of the cited entry PDB 4JHW; also called mAb D25; Alexa Fluor 488-conjugated D25 IgG; copies: 2 + 2
For the molecule B1, in assay [1], the binding result is given as “binds”.

B2: 5C4 IgG (antibody, V domains shown)
VH: EVQLQQSGAELVKPGASVKLSCTASGFNIKDTFFHWVKQRPEQGLEWIGRIDPADGHTKYDPKFQGKATITADTSSNTAFLQLSSLTSVDTAVYYCATTITAVVPTPYNAMDYWGQGTSVTVSS
VL: DIVLTQSPASLAVSLGQRTTISCRASESVDSFDNSFIHWYQQKPGQPPKLLIFLASSLESGVPARFSGSGSRTDFTLTIDPVEADDAATYYCQQSNEDPFTFGSGTKLEIK
For the molecule B2, the “EC50 of 5C4 neutralisation of mKate-RSV A2 wild-type virus on HEp-2 cells (viral F without DS-Cav1; antibody format not given)” value in assay [2] turned out to be 4 ng/mL.

B3: 5C4 Fab (Fab, V domains shown)
VH: B2 VH
VL: B2 VL
notes: 5C4 Fab heavy chain (antibody elicited in mice); 5C4 Fab light chain (murine kappa, Vk3-10); source: Expi293, transiently co-transfected heavy and light chain plasmids; purified from supernatant (CaptureSelect LC-kappa (murine)); for the complex co-expressed with RSV F
The stoichiometry N is the number of molecules, sites or subunits per partner or assembly. As to B3, the binding result in assay [3] was “binds”. Moreover, the “stoichiometry N” value in assay [4] is 3.

The record behind these values is paper PMC5707411 (Nature Communications, 2017).
